This note sets out measurements from article PMC9637997.

For assay [1], the target named is His-tagged GMAP (truncated form, 1-490 aa). In words: GST-pulldown, quantified band intensity. The following applies: His-GMAP truncated form (aa 1-490); N = 3; parent: est. 3.0 (est. ± 0.7 SD); read off a plot.
The next assay deals with GST-tagged Atg8a-WT (UniProt Q9W2S2). In words: GST-pulldown, quantified band intensity. To be noted: GMAP truncated form (1-490 aa); N = 3; parent: est. 1.6 (est. ± 0.18 SD); read off a plot.
Chain of UniProt Q9W2S2 (Q9W2S2 entry or part of it): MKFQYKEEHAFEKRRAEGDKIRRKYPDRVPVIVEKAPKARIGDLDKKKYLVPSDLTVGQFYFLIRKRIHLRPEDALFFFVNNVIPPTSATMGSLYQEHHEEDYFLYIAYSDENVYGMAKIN

On to “GST-tagged Atg8a-WT (from UniProt Q9W2S2) K48A; Y49A”, for which the response in assay [1] is 1.

For the substance “His-tagged GMAP (truncated form, 1-490 aa) F322A; V325A”, in the assay with GST-tagged Atg8a-WT, the response worked out at 1.
